Measurements: the supplement of paper PMC9233669
Fewer inactive variants are shown than the library holds.

What was measured:
biotinyl-Phe-oxazolone = assay: self-aminoacylation, catalytic enhancement (BFO) (fold over background); higher = more active; k-Seq, kA / k0A0; sequences stand for … in GGGAAUGGAUCCACAUCUACGAAUUC…UUCACUGCAGACUUGACGAAGCUG
How it was run: (§1)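 Working in 50 μL HEPES/NaCl/KCl/MgCl2/CaCl2 buffer with 5% acetonitrile at pH 6.9–7.0, mutagenized RNA pools (0.43 μM; 21-nt variable region) were reacted with 2–1250 μM of each biotinyl-aminoacyl-oxazolone for 90 minutes at room temperature. Streptavidin capture followed, with quantification by triplicate qPCR and Illumina sequencing. Catalytic enhancement is reported as median kA over the uncatalyzed rate, the low-activity peak of a bimodal Gaussian fit to the data.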

biotinyl-Ile-oxazolone = assay: self-aminoacylation, catalytic enhancement (BIO) (fold over background); higher = more active; k-Seq, kA / k0A0; sequences stand for … in GGGAAUGGAUCCACAUCUACGAAUUC…UUCACUGCAGACUUGACGAAGCUG
How it was run: as §1

biotinyl-Met-oxazolone = assay: self-aminoacylation, catalytic enhancement (BMO) (fold over background); higher = more active; k-Seq, kA / k0A0; sequences stand for … in GGGAAUGGAUCCACAUCUACGAAUUC…UUCACUGCAGACUUGACGAAGCUG
How it was run: as §1

biotinyl-Val-oxazolone = assay: self-aminoacylation, catalytic enhancement (BVO) (fold over background); higher = more active; k-Seq, kA / k0A0; sequences stand for … in GGGAAUGGAUCCACAUCUACGAAUUC…UUCACUGCAGACUUGACGAAGCUG
How it was run: as §1

biotinyl-Leu-oxazolone = assay: self-aminoacylation, catalytic enhancement (BLO) (fold over background); higher = more active; k-Seq, kA / k0A0; sequences stand for … in GGGAAUGGAUCCACAUCUACGAAUUC…UUCACUGCAGACUUGACGAAGCUG
How it was run: as §1

biotinyl-Trp-oxazolone = assay: self-aminoacylation, catalytic enhancement (BWO) (fold over background); higher = more active; k-Seq, kA / k0A0; sequences stand for … in GGGAAUGGAUCCACAUCUACGAAUUC…UUCACUGCAGACUUGACGAAGCUG
How it was run: as §1

| Sequence | self-aminoacylation (biotinyl-Phe-oxazolone) | self-aminoacylation (biotinyl-Ile-oxazolone) | self-aminoacylation (biotinyl-Met-oxazolone) | self-aminoacylation (biotinyl-Val-oxazolone) | self-aminoacylation (biotinyl-Leu-oxazolone) | self-aminoacylation (biotinyl-Trp-oxazolone) |
| --- | --- | --- | --- | --- | --- | --- |
| CCACACUUGAAGCCAUCGGUC [Fam1B.1 aminoacylation ribozyme variant] | 0.99 | 1.24 | 1.24 | 1.47 | 0.811 | 1.6 |
| CCACACUUGAGGCAAUCGGUC [Fam1B.1 aminoacylation ribozyme variant] | 1.28 | 1.63 | 1.48 | 1.81 | 1.6 | 1.86 |
| CCACACUUUAAGCAACCGGUC [Fam1B.1 aminoacylation ribozyme variant] | 0.959 | 0.795 | 0.613 | 0.884 | 0.844 | 0.72 |
| CCACACUUUAAGCAAUCGGCC [Fam1B.1 aminoacylation ribozyme variant] | 1.64 | 1.52 | 1.58 | 1.74 | 1.22 | 1.85 |
| CCACACUUUGAGCAAUCGGUC [Fam1B.1 aminoacylation ribozyme variant] | 0.83 | 1.05 | 0.858 | 1.06 | 0.96 | 0.721 |
| CCACAGUUCAAGCAAUGGGUC [Fam1B.1 aminoacylation ribozyme variant] | 0.542 | 1.04 | 1.03 | 1.05 | 0.763 | 0.726 |
| CCACAGUUCAAGCACUCGGUC [Fam1B.1 aminoacylation ribozyme variant] | 3.53 | 1.16 | 1.3 | 1.62 | 1.73 | 0.897 |
| CCACAUCAAACAAUCGGUCUG [Fam1A.1 aminoacylation ribozyme variant] | 1.46 | 1.13 | 1.04 | 1.07 | 1.05 | 1.98 |
| CCACAUUUCAAGCAAUCGGCC [Fam1B.1 aminoacylation ribozyme variant] | 3.98 | 3.63 | 4.62 | 3.56 | 3.19 | 4.96 |
| CCACAUUUCAAGCGAUCGGUC [Fam1B.1 aminoacylation ribozyme variant] | 1.52 | 1.54 | 1.31 | 1.64 | 1.62 | 1.16 |
| CCACAUUUCAAGCUAUCGGUC [Fam1B.1 aminoacylation ribozyme variant] | 1.03 | 1.4 | 1.1 | 1.33 | 1.16 | 1.03 |
| CCACAUUUCAAGUAAUCGGUC [Fam1B.1 aminoacylation ribozyme variant] | 2.1 | 1.21 | 1.03 | 1.05 | 1.14 | 1.77 |
| CCACAUUUCACGCAAUCGGUC [Fam1B.1 aminoacylation ribozyme variant] | 2.13 | 2.33 | 2.75 | 2.68 | 2.68 | 2.16 |
| CCACAUUUCAGGCAAUCGGUC [Fam1B.1 aminoacylation ribozyme variant] | 1.92 | 2.2 | 1.58 | 1.93 | 2.2 | 1.59 |
| CCACAUUUCCAGCAAUCGGUC [Fam1B.1 aminoacylation ribozyme variant] | 1.26 | 2.12 | 1.64 | 2.04 | 2.15 | 1.23 |
| CCACAUUUUAAGCAAUCGGUC [Fam1B.1 aminoacylation ribozyme variant] | 1.19 | 1.33 | 0.901 | 1.24 | 1.29 | 0.864 |
| CCACCCCUCAAGCAAUCGGUC [Fam1B.1 aminoacylation ribozyme variant] | 1.64 | 1.18 | 1.05 | 1.27 | 1.28 | 1.14 |
| CCACCCUGCAAGCAAUCGGUC [Fam1B.1 aminoacylation ribozyme variant] | 1.28 | 1.42 | 1.3 | 1.73 | 1.17 | 1.23 |
| CCACCCUUCAAGAAAUCGGUC [Fam1B.1 aminoacylation ribozyme variant] | 5.63 | 1.24 | 1.16 | 1.19 | 1.26 | 6.09 |
| CCACCCUUCAAGCAAGCGGUC [Fam1B.1 aminoacylation ribozyme variant] | 0.522 | 1.01 | 1.25 | 1.4 | 1.36 | 0.963 |
| CCACCCUUCAAGCAAUCGGUA [Fam1B.1 aminoacylation ribozyme variant] | 0.981 | 1.4 | 1.38 | 1.6 | 1.59 | 2.06 |
| CCACCCUUCGAGCAAUCGGUC [Fam1B.1 aminoacylation ribozyme variant] | 0.944 | 1.49 | 1.94 | 2.06 | 1.34 | 2.58 |
| CCACCCUUGAAGCAAUCGGUC [Fam1B.1 aminoacylation ribozyme variant] | 0.764 | 1 | 0.972 | 1.74 | 1.12 | 1.34 |
| CCACGCUUCAAGCAAUAGGUC [Fam1B.1 aminoacylation ribozyme variant] | 0.752 | 0.51 | 0.597 | 0.577 | 0.475 | 0.367 |
| CCACGCUUCAAGCAAUCGGUC [Fam1B.1 aminoacylation ribozyme variant] | 76.9 | 1.2 | 1.37 | 1.54 | 2.11 | 39.9 |
| CCACGCUUCAAGCAAUGGGUC [Fam1B.1 aminoacylation ribozyme variant] | 0.735 | 0.646 | 0.537 | 0.656 | 0.627 | 0.419 |

| Sequence | self-aminoacylation (biotinyl-Phe-oxazolone) | self-aminoacylation (biotinyl-Ile-oxazolone) | self-aminoacylation (biotinyl-Met-oxazolone) | self-aminoacylation (biotinyl-Val-oxazolone) | self-aminoacylation (biotinyl-Leu-oxazolone) | self-aminoacylation (biotinyl-Trp-oxazolone) |
| --- | --- | --- | --- | --- | --- | --- |
| CCACGCUUCAAGCACUCGGUC [Fam1B.1 aminoacylation ribozyme variant] | 0.769 | 0.855 | 0.938 | 1.29 | 0.819 | 0.81 |
| CCACGCUUCAUGCAAUCGGUC [Fam1B.1 aminoacylation ribozyme variant] | 0.756 | 0.812 | 0.782 | 1.06 | 0.749 | 0.507 |
| CCACUACAAACAAUCGGUCUG [Fam1A.1 aminoacylation ribozyme variant] | 1.38 | 1.02 | 0.764 | 1.12 | 1.14 | 0.734 |
| CCACUCCUCAAGCAAUCGGUC [Fam1B.1 aminoacylation ribozyme variant] | 1.26 | 1.07 | 0.986 | 1.23 | 0.845 | 1.26 |
| CCACUCUUAAAGCAAUCGGUC [Fam1B.1 aminoacylation ribozyme variant] | 0.711 | 1.06 | 0.911 | 1.01 | 0.993 | 0.693 |
| CCACUCUUCAAGCAAUCGGUG [Fam1B.1 aminoacylation ribozyme variant] | 23.1 | 3.43 | 4.76 | 3.46 | 7.12 | 5.05 |
| CCACUCUUCAAGCAAUGGGUC [Fam1B.1 aminoacylation ribozyme variant] | 0.667 | 0.877 | 0.953 | 0.859 | 0.911 | 0.647 |
| CCACUCUUCAAGCAAUUGGUC [Fam1B.1 aminoacylation ribozyme variant] | 0.992 | 0.831 | 0.63 | 0.95 | 0.729 | 0.809 |
| CCACUCUUCAAGCACUCGGUC [Fam1B.1 aminoacylation ribozyme variant] | 0.56 | 1.02 | 1.15 | 0.928 | 1.04 | 0.816 |
| CCACUCUUCAAGCCAUCGGUC [Fam1B.1 aminoacylation ribozyme variant] | 0.734 | 1.09 | 1.1 | 1.21 | 1.15 | 0.953 |
| CCACUUCAAACAAUCGGUCCG [Fam1A.1 aminoacylation ribozyme variant] | 38.5 | 1.08 | 1.18 | 1.49 | 1.59 | 16.8 |
| CCACUUCAAACAAUGGGUCUG [Fam1A.1 aminoacylation ribozyme variant] | 0.725 | 1.07 | 0.887 | 1.03 | 0.97 | 0.691 |
| CCACUUCAACCAAUCGGUCUG [Fam1A.1 aminoacylation ribozyme variant] | 73.2 | 1.68 | 1.7 | 2.01 | 2.76 | 36.4 |
| CCACUUCAGACAAUCGGUCUG [Fam1A.1 aminoacylation ribozyme variant] | 1.67 | 1.62 | 1.66 | 1.65 | 1.33 | 1.71 |
| CCACUUCUAACAAUCGGUCUG [Fam1A.1 aminoacylation ribozyme variant] | 0.834 | 0.858 | 0.758 | 0.897 | 0.875 | 0.68 |
| CCAGACUUCAAGCAAACGGUC [Fam1B.1 aminoacylation ribozyme variant] | 0.824 | 0.706 | 0.591 | 0.811 | 0.628 | 0.814 |
| CCAGACUUCAAGCAAUCCGUC [Fam1B.1 aminoacylation ribozyme variant] | 1.19 | 1.67 | 1.47 | 1.58 | 1.45 | 1.95 |
| CCAGACUUCAAGCAAUCGGUC [Fam1B.1 aminoacylation ribozyme variant] | 43.9 | 1.45 | 1.42 | 1.54 | 2.04 | 26 |
| CCAGACUUCAAGCAAUCGGUU [Fam1B.1 aminoacylation ribozyme variant] | 7.61 | 2.02 | 2.04 | 2.43 | 2.69 | 6.59 |
| CCAGACUUCAAGCAAUCGUUC [Fam1B.1 aminoacylation ribozyme variant] | 1.08 | 1.06 | 0.78 | 0.849 | 0.764 | 0.853 |
| CCAGACUUCAAGCAAUCUGUC [Fam1B.1 aminoacylation ribozyme variant] | 0.591 | 0.467 | 0.444 | 0.576 | 0.45 | 0.309 |
| CCAGACUUCAAGCAGUCGGUC [Fam1B.1 aminoacylation ribozyme variant] | 1.4 | 1.48 | 1.1 | 1.3 | 1.77 | 1.39 |
| CCAGACUUUAAGCAAUCGGUC [Fam1B.1 aminoacylation ribozyme variant] | 1.04 | 1.11 | 0.874 | 0.922 | 0.94 | 0.821 |
| CCAGUUCAAACAAUCGGUCUG [Fam1A.1 aminoacylation ribozyme variant] | 14.2 | 1.41 | 1.34 | 1.39 | 1.5 | 10.7 |
| CCAUACUUCAAGCAAUCGGGC [Fam1B.1 aminoacylation ribozyme variant] | 2.06 | 1.95 | 1.53 | 1.73 | 1.61 | 1.15 |
